Drawing on patent publication US20260274993A1, this text covers EC50 for one molecule.

For test [1], the target named is VH4-34 endogenously expressed by cell line GA-10. The test can be described thus: flow cytometry, EC50 of % parent (APC), GA-10 cells endogenously expressing VH4-34; curve in FIG. 5A rises to about 66 % at Log M about -7.2 without a plateau. On the technique in general: In flow cytometry, cells or beads pass a laser one at a time.
The target of test [2] is VH4-34 endogenously expressed by cell line HBL-1. In words: flow cytometry, EC50 of % parent (APC), HBL-1 cells endogenously expressing VH4-34; curve in FIG. 5A rises to about 57 % at Log M about -7.2 without a plateau.

B1: D011-1E11-5T2.IgG2a (antibody, V domains shown)
VH: QVQLVQSGAEVKKPGASMKVSCKASGYSFTGSTMNWVRQAPGQGLEWMGWINPYNGGTNYAQKFQGRVTMTRDTSISTAYMELSRLRSDDTAVYYCASRGKNGYDGRDFDCWGQGTLVTVSS
VL: EIVLTQSPATLSLSPGERATLSCKSTKSLLNSGGFSYLDWYQQKPGQAPRLLIYLVSNRFTGIPARFSGSGSGTDFTLTISSLEPEDFAVYYCFQSNYFPFTFGQGTKLEIKR
Take B1: the concentration for a half-maximal effect (EC50) worked out at 0.00152 µM in test [1] and 0.24 µM in test [2].

Broadly, the EC50 is the concentration giving half of the maximal effect.
